Source: the supplement of paper PMC9112550, “Optimization of the antimicrobial peptide Bac7 by deep mutational scanning” (BMC Biology, 2022)

test system: Escherichia coli TOP10; experiment: shrunken log2 fold change of peptide-encoding DNA abundance (4.5 h post-induction vs induction); higher = less antimicrobial activity (less host growth inhibition); details: time post-induction: 4.5 h; library: site-saturation at positions 5, 18, 19, 20
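Note: peptides expressed intracellularly from a pBAD plasmid library in pooled LB shake-flask culture, induced with 0.3% L-arabinose, DNA abundance read by NGS, three biological replicates, DESeq2 with apeglm shrinkage.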

Row | Sequence | shrunken log2 fold change
1 | RRIRLRPPRLPRPRPRPQIQPRP | -0.0697
2 | RRIRLRPPRLPRPRPRPQIRPRP | -0.0176
3 | RRIRLRPPRLPRPRPRPQMAPRP | -0.0634
4 | RRIRLRPPRLPRPRPRPQNEPRP | -0.459
5 | RRIRLRPPRLPRPRPRPQNYPRP | -0.626
6 | RRIRLRPPRLPRPRPRPQPCPRP | -0.215
7 | RRIRLRPPRLPRPRPRPQQDPRP | -0.29
8 | RRIRLRPPRLPRPRPRPQQIPRP | -0.878
9 | RRIRLRPPRLPRPRPRPQQSPRP | -0.047
10 | RRIRLRPPRLPRPRPRPQSAPRP | -0.372
11 | RRIRLRPPRLPRPRPRPQTFPRP | -0.118
12 | RRIRLRPPRLPRPRPRPQVYPRP | -0.11
13 | RRIRLRPPRLPRPRPRPRADPRP | 2.32
14 | RRIRLRPPRLPRPRPRPRAGPRP | 0.557
15 | RRIRLRPPRLPRPRPRPRALPRP | 2.21
16 | RRIRLRPPRLPRPRPRPRDEPRP | 0.162
17 | RRIRLRPPRLPRPRPRPRDWPRP | 0.847
18 | RRIRLRPPRLPRPRPRPRFNPRP | -0.223
19 | RRIRLRPPRLPRPRPRPRGHPRP | 0.078
20 | RRIRLRPPRLPRPRPRPRHGPRP | 0.414
21 | RRIRLRPPRLPRPRPRPRHKPRP | 0.258
22 | RRIRLRPPRLPRPRPRPRKEPRP | 0.325
23 | RRIRLRPPRLPRPRPRPRKNPRP | 0.0496
24 | RRIRLRPPRLPRPRPRPRKVPRP | 0.0909
25 | RRIRLRPPRLPRPRPRPRLMPRP | -0.197

Row | Sequence | shrunken log2 fold change
26 | RRIRLRPPRLPRPRPRPRLRPRP | 0.285
27 | RRIRLRPPRLPRPRPRPRMEPRP | 0.123
28 | RRIRLRPPRLPRPRPRPRNIPRP | -0.424
29 | RRIRLRPPRLPRPRPRPRNLPRP | -0.0507
30 | RRIRLRPPRLPRPRPRPRNWPRP | 0.751
31 | RRIRLRPPRLPRPRPRPRPRPRP | 0.823
32 | RRIRLRPPRLPRPRPRPRRDPRP | 0.2
33 | RRIRLRPPRLPRPRPRPRRYPRP | -0.00737
34 | RRIRLRPPRLPRPRPRPRSIPRP | -0.247
35 | RRIRLRPPRLPRPRPRPRSLPRP | 0.0255
36 | RRIRLRPPRLPRPRPRPRSTPRP | -0.00899
37 | RRIRLRPPRLPRPRPRPRTLPRP | -0.166
38 | RRIRLRPPRLPRPRPRPRTVPRP | 1.24
39 | RRIRLRPPRLPRPRPRPRWEPRP | 0.0629
40 | RRIRLRPPRLPRPRPRPRYAPRP | 0.00198
41 | RRIRLRPPRLPRPRPRPRYMPRP | -0.982
42 | RRIRLRPPRLPRPRPRPRYRPRP | -0.374
43 | RRIRLRPPRLPRPRPRPRYTPRP | -0.0696
44 | RRIRLRPPRLPRPRPRPSAFPRP | -0.181
45 | RRIRLRPPRLPRPRPRPSATPRP | 0.321
46 | RRIRLRPPRLPRPRPRPSDKPRP | -0.179
47 | RRIRLRPPRLPRPRPRPSEFPRP | -0.855
48 | RRIRLRPPRLPRPRPRPSEMPRP | -0.0614
49 | RRIRLRPPRLPRPRPRPSFQPRP | -0.514
50 | RRIRLRPPRLPRPRPRPSGAPRP | -0.0192

Row | Sequence | shrunken log2 fold change
51 | RRIRLRPPRLPRPRPRPSGNPRP | -0.111
52 | RRIRLRPPRLPRPRPRPSIFPRP | -0.709
53 | RRIRLRPPRLPRPRPRPSLNPRP | -0.625
54 | RRIRLRPPRLPRPRPRPSLTPRP | -0.0866
55 | RRIRLRPPRLPRPRPRPSLYPRP | -0.431
56 | RRIRLRPPRLPRPRPRPSMHPRP | -0.489
57 | RRIRLRPPRLPRPRPRPSMLPRP | -0.965
58 | RRIRLRPPRLPRPRPRPSNHPRP | -1.15
59 | RRIRLRPPRLPRPRPRPSNNPRP | -0.928
60 | RRIRLRPPRLPRPRPRPSPYPRP | -0.674
61 | RRIRLRPPRLPRPRPRPSQAPRP | 0.182
62 | RRIRLRPPRLPRPRPRPSQDPRP | -0.282
63 | RRIRLRPPRLPRPRPRPSQGPRP | 0.535
64 | RRIRLRPPRLPRPRPRPSRDPRP | 0.152
65 | RRIRLRPPRLPRPRPRPSRSPRP | -0.0638
66 | RRIRLRPPRLPRPRPRPSVWPRP | 0.158
67 | RRIRLRPPRLPRPRPRPSVYPRP | -0.584
68 | RRIRLRPPRLPRPRPRPTAHPRP | 0.0391
69 | RRIRLRPPRLPRPRPRPTCCPRP | -0.013
70 | RRIRLRPPRLPRPRPRPTCNPRP | -0.4
71 | RRIRLRPPRLPRPRPRPTCRPRP | 0.187
72 | RRIRLRPPRLPRPRPRPTCWPRP | 0.393
73 | RRIRLRPPRLPRPRPRPTDDPRP | -0.0495
74 | RRIRLRPPRLPRPRPRPTDIPRP | -0.0682
75 | RRIRLRPPRLPRPRPRPTDNPRP | -0.391

Row | Sequence | shrunken log2 fold change
76 | RRIRLRPPRLPRPRPRPTDPPRP | 0.187
77 | RRIRLRPPRLPRPRPRPTDQPRP | 0.0347
78 | RRIRLRPPRLPRPRPRPTEIPRP | -0.15
79 | RRIRLRPPRLPRPRPRPTFIPRP | -0.528
80 | RRIRLRPPRLPRPRPRPTFSPRP | -0.0485
81 | RRIRLRPPRLPRPRPRPTGPPRP | 0.298
82 | RRIRLRPPRLPRPRPRPTHAPRP | 0.029
83 | RRIRLRPPRLPRPRPRPTHEPRP | 0.361
84 | RRIRLRPPRLPRPRPRPTIHPRP | -0.3
85 | RRIRLRPPRLPRPRPRPTITPRP | -0.0781
86 | RRIRLRPPRLPRPRPRPTIVPRP | -0.183
87 | RRIRLRPPRLPRPRPRPTKCPRP | -0.0436
88 | RRIRLRPPRLPRPRPRPTLRPRP | 0.161
89 | RRIRLRPPRLPRPRPRPTLWPRP | 0.284
90 | RRIRLRPPRLPRPRPRPTMYPRP | 0.163
91 | RRIRLRPPRLPRPRPRPTPYPRP | -0.00235
92 | RRIRLRPPRLPRPRPRPTQYPRP | -0.696
93 | RRIRLRPPRLPRPRPRPTSAPRP | 0.659
94 | RRIRLRPPRLPRPRPRPTSCPRP | 0.0575
95 | RRIRLRPPRLPRPRPRPTSDPRP | 0.0874
96 | RRIRLRPPRLPRPRPRPTSMPRP | -0.154
97 | RRIRLRPPRLPRPRPRPTVDPRP | -0.131
98 | RRIRLRPPRLPRPRPRPTVVPRP | -0.0551
99 | RRIRLRPPRLPRPRPRPTWAPRP | 0.17
100 | RRIRLRPPRLPRPRPRPTWVPRP | 0.0425

Row | Sequence | shrunken log2 fold change
101 | RRIRLRPPRLPRPRPRPVDLPRP | -0.418
102 | RRIRLRPPRLPRPRPRPVDPPRP | -0.0136
103 | RRIRLRPPRLPRPRPRPVEPPRP | 0.188
104 | RRIRLRPPRLPRPRPRPVEVPRP | -0.0272
105 | RRIRLRPPRLPRPRPRPVFDPRP | -0.251
106 | RRIRLRPPRLPRPRPRPVFFPRP | 0.0612
107 | RRIRLRPPRLPRPRPRPVHAPRP | 0.178
108 | RRIRLRPPRLPRPRPRPVHLPRP | -0.0235
109 | RRIRLRPPRLPRPRPRPVHTPRP | -0.0875
110 | RRIRLRPPRLPRPRPRPVILPRP | -1
111 | RRIRLRPPRLPRPRPRPVKHPRP | -0.131
112 | RRIRLRPPRLPRPRPRPVKWPRP | 0.215
113 | RRIRLRPPRLPRPRPRPVLGPRP | 0.192
114 | RRIRLRPPRLPRPRPRPVLHPRP | -0.024
115 | RRIRLRPPRLPRPRPRPVMPPRP | -0.29
116 | RRIRLRPPRLPRPRPRPVMRPRP | 0.076
117 | RRIRLRPPRLPRPRPRPVNSPRP | 0.1
118 | RRIRLRPPRLPRPRPRPVQMPRP | 3
119 | RRIRLRPPRLPRPRPRPVQNPRP | 0.0224
120 | RRIRLRPPRLPRPRPRPVSMPRP | -0.302
121 | RRIRLRPPRLPRPRPRPVSYPRP | -0.0976
122 | RRIRLRPPRLPRPRPRPVWGPRP | 0.0435
123 | RRIRLRPPRLPRPRPRPVWIPRP | 0.0148
124 | RRIRLRPPRLPRPRPRPWCFPRP | -0.158
125 | RRIRLRPPRLPRPRPRPWCHPRP | -0.441

Row | Sequence | shrunken log2 fold change
126 | RRIRLRPPRLPRPRPRPWEAPRP | -0.229
127 | RRIRLRPPRLPRPRPRPWGYPRP | -0.359
128 | RRIRLRPPRLPRPRPRPWHGPRP | -0.109
129 | RRIRLRPPRLPRPRPRPWIDPRP | -0.0305
130 | RRIRLRPPRLPRPRPRPWKCPRP | -0.391
131 | RRIRLRPPRLPRPRPRPWKLPRP | -0.00968
132 | RRIRLRPPRLPRPRPRPWKPPRP | -0.0142
133 | RRIRLRPPRLPRPRPRPWLEPRP | -0.212
134 | RRIRLRPPRLPRPRPRPWMWPRP | 0.154
135 | RRIRLRPPRLPRPRPRPWNGPRP | -0.217
136 | RRIRLRPPRLPRPRPRPWNLPRP | -0.0149
137 | RRIRLRPPRLPRPRPRPWPDPRP | -0.148
138 | RRIRLRPPRLPRPRPRPWPRPRP | 0.113
139 | RRIRLRPPRLPRPRPRPWQIPRP | 0.019
140 | RRIRLRPPRLPRPRPRPWQSPRP | 0.0341
141 | RRIRLRPPRLPRPRPRPWRAPRP | 0.392
142 | RRIRLRPPRLPRPRPRPWRIPRP | 0.0246
143 | RRIRLRPPRLPRPRPRPWSGPRP | -0.000803
144 | RRIRLRPPRLPRPRPRPWSMPRP | 0.202
145 | RRIRLRPPRLPRPRPRPWVEPRP | -0.186
146 | RRIRLRPPRLPRPRPRPWVRPRP | -0.00819
147 | RRIRLRPPRLPRPRPRPWVTPRP | -0.145
148 | RRIRLRPPRLPRPRPRPWYEPRP | 0.0242
149 | RRIRLRPPRLPRPRPRPYANPRP | -0.165
150 | RRIRLRPPRLPRPRPRPYCLPRP | -0.303
